Laboratory results published in patent publication US20050222402A1, “Dna encoding rat bombesin receptor subtype-3 (brs-3) and uses thereof” (priority 2001, published 2005).
Numbering of substitutions follows the chain as printed. No end group written: not given here.

Columns and labels:
RBB3-E3 = target: T1, RBB3-E3 (Rattus norvegicus, UniProt Q8K418, A302V/D306A/E299Q/E303D/P308H/S300T/V307M/V310I/V311F/Y298S); experiment: Radioligand binding assay with 125I-dYB; design: species or system rat/human; settings: competition with [125I]dYB
T1 construct: expressed in transfected cells; host or cells: 293EBNA cells, pE3 expression vector
T1 sequence (Q8K418 1-399 Y298S/E299Q/S300T/A302V/E303D/D306A/V307M/P308H/V310I/V311F): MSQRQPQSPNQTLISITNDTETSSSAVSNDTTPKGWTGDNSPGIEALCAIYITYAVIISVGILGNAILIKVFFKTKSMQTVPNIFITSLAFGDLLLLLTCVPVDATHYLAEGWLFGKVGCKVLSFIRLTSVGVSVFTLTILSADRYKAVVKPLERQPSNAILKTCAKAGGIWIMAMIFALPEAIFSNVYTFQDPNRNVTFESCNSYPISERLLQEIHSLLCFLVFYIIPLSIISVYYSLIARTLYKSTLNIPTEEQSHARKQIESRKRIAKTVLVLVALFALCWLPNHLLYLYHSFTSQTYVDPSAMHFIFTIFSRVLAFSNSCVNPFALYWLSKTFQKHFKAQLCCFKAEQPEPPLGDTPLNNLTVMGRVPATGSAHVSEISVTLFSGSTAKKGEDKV
Protocol: After removal of cell nuclei by a low speed centrifugation (1000×g) step, the cell membrane proteins were collected by centrifugation at 35,000×g for 20 minutes. The membrane protein concentration was determined by the Bradford method using BSA as standard.
After a 2 hr incubation at room temperature, the binding reaction was terminated by filtering through a GF/c filter-mate and washing the filter with binding buffer using Packard 96-well Topcount Harvester. The amount of radioligand bound to the receptor was determined by measurement of the radioactivity on the filter through liquid scintillation counting. The non-specific binding was defined as the binding in the presence of 1 uM unlabeled dYB.

rat BRS-3 [1] = target: T2, rat BRS-3 (Rattus norvegicus, UniProt Q8K418); experiment: Calcium mobilization assay (FLIPR), transfected 293EBNA cells; format: cell-based
T2 construct: utilized to PCR amplify full-length rat BRS-3 cDNA; expressed in transfected cells; host or cells: 293EBNA cells, pE3 expression vector
T2 sequence (Q8K418 1-399): T1 sequence (Q8K418 1-399 Y298S/E299Q/S300T/A302V/E303D/D306A/V307M/P308H/V310I/V311F) with S298Y, Q299E, T300S, V302A, D303E, A306D, M307V, H308P, I310V, F311V
Protocol: (§1) Wild type and mutant BRS-3 constructs were transfected by using lipofectamine reagents (Life Technologies, Rockville, Md.) into 293EBNA cells (Invitrogen, Carlsbad, Calif.) which support episomal replication of plasmid containing Epstein Bar virus OriP segment. Stable cell lines were obtained by selection with 250 ug/ml hygromycin. The cells were maintained as monolayers in Dulbecco's modified Eagle's medium (Life Technologies, Rockville, Md.) supplemented with 10% fetal bovine serum and incubated at 37° C. in a humidified 5% CO2 incubator.
The functional activity of rat BRS-3 was also studied by measuring the agonist-induced calcium mobilization response using a Fluorescence Imaging Plate Reader (Molecular Devices, Sunnyvale, Calif.). Transfected 293EBNA cells were plated onto poly-D-lysine coated 96-well plates with black wall and clear bottom (Becton Dickinson, Franklin Lakes, N.J.). After 16-48 hr culture, the cells were loaded with 4 uM Fluo-3-AM fluorescent calcium-indicator dye (Molecular Probes, Eugene, OR) in assay buffer (Hank's balanced salts solution, 10 mM HEPES, pH7.4, 0.1% bovine serum albumin, 2.5 mM probenecid).
The changes in intracellular calcium concentration, as indicated by Fluo-3 fluorescence, were immediately measured by FLIPR. Maximal changes in fluorescence over base line were used to determine agonist response.
The EC50 values were mean±S.E. calculated from dose-response curves of 3-5 repeated experiments using FLIPR assays.

rat BRS-3 [2] = target: T2, rat BRS-3; experiment: Phosphatidylinositol hydrolysis functional assay; format: cell-based; settings: peptide at 10 uM, transfected 293EBNA cells
Protocol: as §1
The functional properties of rat BRS-3 were characterized in transfected 293EBNA cells. The transfected 293EBNA cells were plated onto poly-D-lysine coated 12-well plates and incubated in the medium containing 2 uCi/ml [^3H]myo-inositol. The cells were labeled for 48 hrs, and subsequently incubated for 30 minutes in Hank's balanced salt solution containing 10 mM HEPES, 0.1% BSA and 10 mM LiCl.
Since a natural agonist of BRS-3 has not been found, members of the bombesin-like peptide family, including GRP, NMB, bombesin and dYB, were used to stimulate the transfected cells described above, in the same buffer, for 1 hr at 37° C. The reaction was stopped by removal of medium and addition of 10 mM formic acid. The inositol monophosphate fraction was then isolated by anion chromatography as described (Berridge et al. Biochem. J. 212: 473-482 (1983), which is hereby incorporated by reference).

RB3-VD (rat) = RB3-VD (rat) (UniProt Q8K418); experiment: cell-based or functional assay
RBB3-E3 (rat; human) = RBB3-E3 (rat; human) (UniProt Q8K418); experiment: cell-based or functional assay
RB3-AMH (rat) = RB3-AMH (rat) (UniProt Q8K418); experiment: cell-based or functional assay
[3] = target: human bombesin receptor subtype-3 (human) (UniProt P32247); experiment: cell-based or functional assay
[4] = target: rat bombesin receptor subtype-3 (rat) (UniProt Q8K418); experiment: cell-based or functional assay
RB3-SQT (rat) = RB3-SQT (rat) (UniProt Q8K418); experiment: cell-based or functional assay
RB3-IF (rat) = RB3-IF (rat) (UniProt Q8K418); experiment: cell-based or functional assay
[5] = target: rat bombesin receptor subtype-3 (rat) (UniProt Q8K418); experiment: summary statement in the description; assay not named

human bombesin receptor subtype-3 (human), sequence (P32247 whole entry): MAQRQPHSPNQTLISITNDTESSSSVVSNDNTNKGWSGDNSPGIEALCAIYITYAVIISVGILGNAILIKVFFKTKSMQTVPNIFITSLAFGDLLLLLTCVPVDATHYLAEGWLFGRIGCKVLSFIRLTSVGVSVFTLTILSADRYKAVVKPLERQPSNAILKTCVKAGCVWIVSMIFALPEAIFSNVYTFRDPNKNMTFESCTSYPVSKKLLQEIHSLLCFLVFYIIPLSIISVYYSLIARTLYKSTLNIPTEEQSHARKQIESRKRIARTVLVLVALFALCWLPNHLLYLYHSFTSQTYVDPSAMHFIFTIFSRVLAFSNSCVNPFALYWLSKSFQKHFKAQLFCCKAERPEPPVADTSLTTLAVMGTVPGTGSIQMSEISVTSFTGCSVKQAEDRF

Substance: phyllolitorin
- binding affinity (RBB3-E3): uM low affinities

Substance: neuromedin B [NMB]
- intracellular calcium response (rat BRS-3 [1]; concentrations below 1.0 uM): none of the four peptides could stimulate a significant calcium response
- intracellular calcium response (rat BRS-3 [1]; peptide at 10 uM): transient increase in intracellular calcium concentration
- binding affinity (RBB3-E3): uM low affinities
- stimulation of phosphatidylinositol (PI) hydrolysis (inositol monophosphate production) (rat BRS-3 [2]): significant increase

Substance: [D-Tyr6-betaAla11-Phe13-Nle14] bombesin (6-14) (peptide)
- EC50, calcium mobilization (FLIPR) (RB3-VD (rat)): 930 nM
- EC50, calcium mobilization (FLIPR) (RBB3-E3 (rat; human)): 2.8 nM
- EC50, calcium mobilization (FLIPR) (RB3-AMH (rat)): 370 nM
- fold improvement of dYB potency against rat BRS-3, calcium mobilization (RB3-AMH (rat)): 6 fold
- EC50, calcium mobilization (FLIPR) [3]: 1.2 nM
- EC50, calcium mobilization (FLIPR) [4]: 2200 nM
- fold difference in dYB potency between human and rodent BRS-3 [4]: 1000 fold
- phosphatidylinositol (PI) hydrolysis, inositol monophosphate production, peptide at 10 uM [4]: 9 fold
- EC50, calcium mobilization (FLIPR) (RB3-SQT (rat)): 390 nM
- fold improvement of dYB potency against rat BRS-3, calcium mobilization (RB3-SQT (rat)): 5 fold
- EC50, calcium mobilization (FLIPR) (RB3-IF (rat)): 1300 nM
- fold lower affinity than human BRS-3 [5]: 1000 fold

Substance: gastrin-releasing peptide (VPLPAGGGTVLTKMYPRGNHWAVGHLM; ends and bridges not checked; UniProt P07492 24-50, looked up) [GRP, bombesin-like peptide found in mammals]
- intracellular calcium response (rat BRS-3 [1]; concentrations below 1.0 uM): none of the four peptides could stimulate a significant calcium response
- intracellular calcium response (rat BRS-3 [1]; peptide at 10 uM): transient increase in intracellular calcium concentration
- binding affinity (RBB3-E3): uM low affinities
- stimulation of phosphatidylinositol (PI) hydrolysis (inositol monophosphate production) (rat BRS-3 [2]): significant increase
